Source: the supplement of paper PMC10065799, “High-throughput profiling of sequence recognition by tyrosine kinases and SH2 domains using bacterial peptide display” (eLife, 2023)

How the values were obtained:
AncSZ = test: phosphorylation enrichment, bacterial display (enrichment ratio); higher = better substrate or ligand; peptides without Tyr show the background
EPHB1 = EPHB1 (UniProt P54762); test: as above
EPHB2 = EPHB2 (UniProt P29323); test: as above
FGFR1 = FGFR1 (UniProt P11362); test: as above
FGFR3 = FGFR3 (UniProt P22607); test: as above
Fer (mouse) = test: as above
Fes = Fes (UniProt P07332); test: as above
Fyn = Fyn (UniProt P06241); test: as above
Hck = Hck (UniProt P08631); test: as above
Jak2 = Jak2 (UniProt O60674); test: as above
MERTK = MERTK (UniProt Q12866); test: as above
c-Abl (mouse) = test: as above
c-Src = test: as above
Grb2 SH2 = Grb2 SH2 (UniProt P62993); test: SH2 binding enrichment of the phosphorylated peptide, bacterial display (enrichment ratio); higher = better substrate or ligand; peptides without Tyr show the background
SHP2-C SH2 = test: as above
c-Src SH2 = test: as above
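Wherever SH2 binding enrichment of the phosphorylated peptide, bacterial display is given: peptide library displayed on the E. coli surface as eCPX fusions, selected cells deep-sequenced, score is each peptide's frequency after selection divided by its frequency in the input.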
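Wherever phosphorylation enrichment, bacterial display is given: 11-residue human phosphosite peptides and single-mutation variants displayed on the E. coli surface, counted by deep sequencing, each peptide's frequency after selection divided by its frequency in the unselected input library; frequency after pTyr selection over input frequency; kinase dosed for 20-30% of maximal phosphorylation in three min.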

Hck, sequence (P08631 whole entry, looked up): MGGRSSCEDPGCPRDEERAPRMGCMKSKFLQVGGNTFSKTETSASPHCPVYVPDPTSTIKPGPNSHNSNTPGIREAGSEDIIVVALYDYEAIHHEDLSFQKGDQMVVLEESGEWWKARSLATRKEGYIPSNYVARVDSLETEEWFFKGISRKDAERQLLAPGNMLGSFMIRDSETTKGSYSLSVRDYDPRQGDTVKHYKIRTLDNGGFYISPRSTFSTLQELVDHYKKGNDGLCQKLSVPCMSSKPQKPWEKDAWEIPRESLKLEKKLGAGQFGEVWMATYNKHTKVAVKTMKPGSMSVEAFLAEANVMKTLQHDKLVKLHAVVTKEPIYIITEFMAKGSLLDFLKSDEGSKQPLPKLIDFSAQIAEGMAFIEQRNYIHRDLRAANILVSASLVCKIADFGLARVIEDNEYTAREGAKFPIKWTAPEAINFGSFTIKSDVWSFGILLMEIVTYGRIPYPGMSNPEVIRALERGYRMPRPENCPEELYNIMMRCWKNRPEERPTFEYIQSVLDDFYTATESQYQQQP
Fes, sequence (P07332 whole entry, looked up): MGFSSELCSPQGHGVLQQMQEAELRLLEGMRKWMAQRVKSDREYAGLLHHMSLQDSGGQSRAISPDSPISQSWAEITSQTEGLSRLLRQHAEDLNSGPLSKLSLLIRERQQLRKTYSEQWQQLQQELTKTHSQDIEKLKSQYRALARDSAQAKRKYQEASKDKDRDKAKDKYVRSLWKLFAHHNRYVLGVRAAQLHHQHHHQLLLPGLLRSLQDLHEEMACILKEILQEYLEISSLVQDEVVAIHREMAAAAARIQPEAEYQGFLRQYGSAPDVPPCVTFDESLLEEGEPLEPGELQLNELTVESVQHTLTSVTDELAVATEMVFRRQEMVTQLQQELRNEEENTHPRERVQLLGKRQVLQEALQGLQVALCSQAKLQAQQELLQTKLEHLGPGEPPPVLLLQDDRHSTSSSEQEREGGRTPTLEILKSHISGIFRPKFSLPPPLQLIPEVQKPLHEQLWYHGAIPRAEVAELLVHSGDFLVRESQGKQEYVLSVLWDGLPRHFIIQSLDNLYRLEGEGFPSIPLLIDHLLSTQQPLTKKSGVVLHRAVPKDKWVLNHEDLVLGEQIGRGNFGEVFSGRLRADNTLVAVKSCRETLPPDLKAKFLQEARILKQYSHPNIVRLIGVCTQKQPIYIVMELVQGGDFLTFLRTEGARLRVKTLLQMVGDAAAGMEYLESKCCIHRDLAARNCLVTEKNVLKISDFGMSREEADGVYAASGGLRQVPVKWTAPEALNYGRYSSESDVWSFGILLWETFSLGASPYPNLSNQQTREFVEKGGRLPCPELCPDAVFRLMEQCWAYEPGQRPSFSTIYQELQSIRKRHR
Grb2 SH2, sequence (P62993 whole entry, looked up): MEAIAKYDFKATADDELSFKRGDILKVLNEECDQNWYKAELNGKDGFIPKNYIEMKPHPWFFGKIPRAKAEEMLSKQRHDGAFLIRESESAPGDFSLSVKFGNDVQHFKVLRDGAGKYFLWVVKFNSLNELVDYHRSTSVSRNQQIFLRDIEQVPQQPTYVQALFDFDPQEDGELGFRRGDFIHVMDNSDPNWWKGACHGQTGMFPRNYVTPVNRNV
Jak2, sequence (O60674 whole entry, looked up): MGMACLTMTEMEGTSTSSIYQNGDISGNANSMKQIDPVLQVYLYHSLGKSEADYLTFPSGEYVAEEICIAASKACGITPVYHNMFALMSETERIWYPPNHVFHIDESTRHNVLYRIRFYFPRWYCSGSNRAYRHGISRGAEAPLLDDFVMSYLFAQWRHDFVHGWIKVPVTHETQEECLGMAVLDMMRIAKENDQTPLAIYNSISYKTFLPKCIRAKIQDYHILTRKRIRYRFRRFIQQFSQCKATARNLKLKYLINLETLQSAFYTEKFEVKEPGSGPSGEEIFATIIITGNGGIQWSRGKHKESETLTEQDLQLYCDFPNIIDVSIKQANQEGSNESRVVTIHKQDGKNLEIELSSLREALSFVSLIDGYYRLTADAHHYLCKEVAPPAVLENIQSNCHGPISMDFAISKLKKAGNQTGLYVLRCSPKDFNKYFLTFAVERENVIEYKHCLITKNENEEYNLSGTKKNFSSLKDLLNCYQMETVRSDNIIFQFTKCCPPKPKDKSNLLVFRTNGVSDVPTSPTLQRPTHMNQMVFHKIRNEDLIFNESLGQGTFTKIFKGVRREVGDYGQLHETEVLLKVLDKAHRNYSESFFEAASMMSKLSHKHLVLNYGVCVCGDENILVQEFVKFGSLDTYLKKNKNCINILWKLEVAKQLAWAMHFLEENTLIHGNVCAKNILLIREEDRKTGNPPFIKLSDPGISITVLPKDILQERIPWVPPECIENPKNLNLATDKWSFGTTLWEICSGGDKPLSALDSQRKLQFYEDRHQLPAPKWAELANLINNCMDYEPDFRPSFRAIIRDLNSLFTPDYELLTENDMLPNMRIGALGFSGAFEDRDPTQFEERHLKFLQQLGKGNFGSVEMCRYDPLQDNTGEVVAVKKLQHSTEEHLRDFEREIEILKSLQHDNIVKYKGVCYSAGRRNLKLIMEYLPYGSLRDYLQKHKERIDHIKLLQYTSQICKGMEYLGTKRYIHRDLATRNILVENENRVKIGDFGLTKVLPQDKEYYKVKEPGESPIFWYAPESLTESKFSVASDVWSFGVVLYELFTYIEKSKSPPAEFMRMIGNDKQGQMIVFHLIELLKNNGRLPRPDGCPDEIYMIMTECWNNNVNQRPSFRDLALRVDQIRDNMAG
EPHB2, sequence (P29323 whole entry, looked up): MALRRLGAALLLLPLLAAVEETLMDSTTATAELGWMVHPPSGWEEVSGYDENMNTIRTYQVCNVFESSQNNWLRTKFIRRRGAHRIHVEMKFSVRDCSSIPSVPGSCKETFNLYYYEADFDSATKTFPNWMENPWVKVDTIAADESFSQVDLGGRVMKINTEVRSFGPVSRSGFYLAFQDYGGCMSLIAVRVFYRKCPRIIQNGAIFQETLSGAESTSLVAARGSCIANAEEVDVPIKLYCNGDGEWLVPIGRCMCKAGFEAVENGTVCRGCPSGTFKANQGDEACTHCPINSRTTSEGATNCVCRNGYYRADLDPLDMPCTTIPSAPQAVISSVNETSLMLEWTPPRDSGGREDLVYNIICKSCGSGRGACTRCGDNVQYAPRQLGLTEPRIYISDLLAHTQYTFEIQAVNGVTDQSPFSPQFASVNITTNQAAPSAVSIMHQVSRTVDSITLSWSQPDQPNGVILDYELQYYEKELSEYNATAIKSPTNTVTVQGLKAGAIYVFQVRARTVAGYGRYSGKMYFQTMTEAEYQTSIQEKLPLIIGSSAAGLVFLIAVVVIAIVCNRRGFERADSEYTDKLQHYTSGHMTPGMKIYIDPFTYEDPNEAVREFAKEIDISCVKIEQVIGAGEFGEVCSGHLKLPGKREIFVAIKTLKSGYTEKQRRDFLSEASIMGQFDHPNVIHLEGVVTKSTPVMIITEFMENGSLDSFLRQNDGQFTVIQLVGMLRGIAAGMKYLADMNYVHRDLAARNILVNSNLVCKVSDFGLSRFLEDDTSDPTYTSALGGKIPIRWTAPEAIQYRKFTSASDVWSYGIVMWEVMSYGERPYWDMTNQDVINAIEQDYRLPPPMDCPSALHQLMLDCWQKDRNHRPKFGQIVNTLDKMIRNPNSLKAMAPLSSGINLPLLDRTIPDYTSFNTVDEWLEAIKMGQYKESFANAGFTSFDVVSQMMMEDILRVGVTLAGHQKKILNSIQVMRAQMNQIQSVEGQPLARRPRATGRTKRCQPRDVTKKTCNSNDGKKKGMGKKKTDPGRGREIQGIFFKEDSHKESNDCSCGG
MERTK, sequence (Q12866 whole entry, looked up): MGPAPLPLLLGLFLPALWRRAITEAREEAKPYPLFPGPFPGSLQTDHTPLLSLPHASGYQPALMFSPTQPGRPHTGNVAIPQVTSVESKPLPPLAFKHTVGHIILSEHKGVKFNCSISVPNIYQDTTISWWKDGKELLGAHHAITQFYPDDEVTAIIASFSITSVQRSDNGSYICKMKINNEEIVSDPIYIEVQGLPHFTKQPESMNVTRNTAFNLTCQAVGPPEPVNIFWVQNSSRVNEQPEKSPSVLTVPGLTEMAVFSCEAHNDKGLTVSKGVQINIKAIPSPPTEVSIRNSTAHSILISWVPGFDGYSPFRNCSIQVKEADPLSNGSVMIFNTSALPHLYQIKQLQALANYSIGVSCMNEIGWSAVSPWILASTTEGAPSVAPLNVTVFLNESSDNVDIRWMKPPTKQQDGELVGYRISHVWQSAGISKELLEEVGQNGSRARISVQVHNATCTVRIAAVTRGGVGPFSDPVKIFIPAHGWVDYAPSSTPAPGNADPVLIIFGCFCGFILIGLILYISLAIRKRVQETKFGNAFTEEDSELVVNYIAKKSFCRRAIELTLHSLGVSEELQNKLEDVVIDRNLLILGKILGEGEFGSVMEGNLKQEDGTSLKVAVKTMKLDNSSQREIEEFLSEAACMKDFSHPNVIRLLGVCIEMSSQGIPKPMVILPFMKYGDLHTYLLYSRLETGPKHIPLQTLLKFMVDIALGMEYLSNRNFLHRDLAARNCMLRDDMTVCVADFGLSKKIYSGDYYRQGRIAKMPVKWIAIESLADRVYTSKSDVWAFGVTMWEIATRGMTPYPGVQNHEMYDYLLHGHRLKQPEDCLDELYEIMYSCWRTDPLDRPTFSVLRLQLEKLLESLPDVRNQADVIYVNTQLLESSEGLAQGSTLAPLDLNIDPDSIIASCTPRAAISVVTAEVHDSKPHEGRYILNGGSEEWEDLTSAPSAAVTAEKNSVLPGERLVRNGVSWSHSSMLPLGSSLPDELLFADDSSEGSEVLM

Sequence	phosphorylation enrichment (AncSZ)	phosphorylation enrichment (EPHB1)	phosphorylation enrichment (EPHB2)	phosphorylation enrichment (FGFR1)	phosphorylation enrichment (FGFR3)	phosphorylation enrichment (Fer (mouse))	phosphorylation enrichment (Fes)	phosphorylation enrichment (Fyn)	phosphorylation enrichment (Hck)	phosphorylation enrichment (Jak2)	phosphorylation enrichment (MERTK)	phosphorylation enrichment (c-Abl (mouse))	phosphorylation enrichment (c-Src)	SH2 binding enrichment (Grb2 SH2)	SH2 binding enrichment (SHP2-C SH2)	SH2 binding enrichment (c-Src SH2)
ESMLRYDVYGG [STOX1_Y607_E608D]	0.96	0.646	1.08	0.482	0.705	0.462	0.972	1.04	1.3	0.704	0.918	0.529	1.29	0.996	0.62	0.723
GIKAAYEAELG [LMNA_Y81]	0.713	0.531	0.507	0.502	0.496	0.446	0.797	0.597	0.438	0.691	0.404	0.704	0.392	0.875	0.727	0.514
AHLTEYLSTHY [UQCRC1_Y219_D215H]	0.716	0.462	0.396	0.475	0.585	0.371	0.639	0.402	0.517	0.647	0.464	0.475	0.453	0.845	0.724	0.511
ESDGAYIQRMQ [CCDC137_Y125_H127Q]	0.687	0.474	0.496	0.385	0.54	0.417	0.772	0.423	0.446	0.985	0.43	0.599	0.456	0.731	0.708	0.468
ALDRPYTSKHS [NANS_Y71_E68D]	0.612	0.364	0.508	0.379	0.566	0.474	0.638	0.499	0.489	0.636	0.448	0.637	0.542	0.926	0.613	0.485
SLNEEYTKNKT [MSH2_Y563]	0.716	0.369	0.354	0.324	0.397	0.379	0.786	0.325	0.37	0.593	0.348	0.537	0.426	0.988	0.663	0.621
QRRLIYRCQVG [NR2E3_Y81_R76Q]	0.968	0.622	0.728	0.579	0.845	0.643	0.861	0.764	0.629	1.03	0.652	0.595	0.569	0.628	0.412	0.606
ATCKAYGQALA [TKT_Y321_R318C]	0.753	0.523	0.446	0.445	0.573	0.484	0.73	0.424	0.431	0.645	0.419	0.568	0.493	0.899	0.631	0.453
LSIQCYLRALD [HMGCS2_Y262]	2.06	1.25	1.31	0.672	1.91	0.822	2.81	0.825	1.12	2.35	0.802	1.98	1.01	0.708	0.49	0.454
PLDGEYFTLRI [TP53_Y327_Q331R]	2.77	1.04	1.04	6.1	5	0.971	2.19	2.55	1.76	2.88	0.45	1.93	3.13	0.767	0.539	0.596
LYEDHYLLGTS [ASS1_Y87_R86H]	1.66	12.3	3.05	0.689	0.972	16.1	1.37	1.86	1.19	2.17	2.08	1.1	2.73	0.9	0.565	0.571
ISRLKYPVSQQ [BTK_Y375]	0.419	0.331	0.383	0.317	0.399	0.318	0.59	0.355	0.352	0.534	0.313	0.486	0.342	0.938	1.04	0.831
PPAPRYHDSAV [LZTR1_Y119_H121D]	0.73	0.658	0.476	0.532	0.711	0.448	0.877	0.861	0.684	0.979	0.741	0.743	0.728	0.729	0.508	0.551
KFDLMYAKHAF [TUBA1A_Y399_R402H]	0.794	0.521	0.543	0.397	0.564	1.07	0.987	0.435	0.438	0.805	0.408	0.573	0.44	0.847	0.772	0.527
YRQNGYIPGSN [PCDHGA1_Y895_V894G]	0.485	0.381	0.404	0.399	0.439	0.423	0.547	0.384	0.405	0.467	0.405	0.47	0.422	0.846	0.896	0.452
FFVVEYRNQKP [MUC17_Y4332_D4334N_YF]	1.32	0.795	0.841	0.581	0.98	0.82	1.65	0.623	0.687	1.55	0.413	1.52	0.608	1.46	1.38	0.865
KEEEDYKEENN [BMS1_Y651]	1.15	0.532	0.554	0.468	0.561	0.55	1.06	0.475	0.516	1	0.422	0.75	0.453	0.769	0.716	0.499

Sequence	phosphorylation enrichment (AncSZ)	phosphorylation enrichment (EPHB1)	phosphorylation enrichment (EPHB2)	phosphorylation enrichment (FGFR1)	phosphorylation enrichment (FGFR3)	phosphorylation enrichment (Fer (mouse))	phosphorylation enrichment (Fes)	phosphorylation enrichment (Fyn)	phosphorylation enrichment (Hck)	phosphorylation enrichment (Jak2)	phosphorylation enrichment (MERTK)	phosphorylation enrichment (c-Abl (mouse))	phosphorylation enrichment (c-Src)	SH2 binding enrichment (Grb2 SH2)	SH2 binding enrichment (SHP2-C SH2)	SH2 binding enrichment (c-Src SH2)
VTAALYGCLYE [BTD_Y536_R538C]	1.34	1.34	1.47	0.558	0.825	2.67	1.43	5.14	4.01	1.24	2.11	0.954	4.26	0.729	0.564	0.547
NTQRPYFKGGG [TYROBP_Y111_YF]	0.533	0.429	0.372	0.364	0.467	0.437	0.613	0.428	0.326	0.904	0.454	0.574	0.461	1.04	1.02	0.619
EGQKIYIDDNN [PIP4K2A_Y246]	1.04	0.586	0.539	0.584	0.667	0.484	1.15	0.568	0.548	0.984	0.412	0.74	0.467	0.699	0.696	0.416
VSYDEYRYRSV [CFTR_Y515]	0.754	0.485	0.417	0.455	0.484	0.381	0.942	0.633	0.586	0.71	0.428	0.667	0.743	0.978	0.822	1.45
SLLVVYPWTQR [HBB_Y36_R31S]	1.05	0.462	0.544	0.438	0.513	0.398	1.01	0.516	0.395	0.804	0.374	0.602	0.36	1.88	1.5	1.14
LERFIYNREEL [HLA-DPB1_Y59_F64L_YF]	1.5	0.698	0.734	0.666	0.75	0.669	1.3	1.19	1.5	1.54	0.694	1.11	2.42	1.2	0.85	0.703
DTSKMYIPHTD [EXPH5_Y782]	0.624	0.487	0.405	0.445	0.577	0.436	0.786	0.372	0.427	0.606	0.399	0.549	0.371	0.679	0.512	0.417
EKKDVYKAGEQ [CFH_Y1008]	1.08	0.336	0.643	0.434	0.482	0.624	0.675	0.404	0.386	0.555	0.425	0.475	0.394	0.954	0.549	0.596
LQFRNYQQLFD [MAN2A1_Y442_K440R]	2.02	1.42	0.928	0.857	1.41	0.65	2.25	1.08	0.771	2.42	0.789	1.3	1.03	0.689	0.947	1.78
VNKLVYENING [FRS2_Y306]	0.665	4.71	0.75	0.52	0.454	3.63	0.8	0.95	2.67	0.539	1.64	0.524	1.78	23.9	2.03	6.33
IGERTYGQVFK [CDK13_Y716_G714R_YF]	0.62	0.468	0.557	0.368	0.482	0.456	0.905	7.52	3.7	0.495	0.4	0.474	5.22	0.857	0.754	0.519
FYRNVYHLASV [RBL1_Y796_K794N]	0.728	0.611	0.587	0.464	0.556	0.417	0.635	1.93	0.648	0.484	0.371	0.429	1	0.745	0.699	2
FFNSEYGELSE [FLT4_Y1337_YF]	1.2	0.566	0.567	0.479	0.728	0.533	1.24	1.19	0.791	1.02	0.399	0.875	1.25	0.943	0.734	0.468
RVLKLYGCSPS [ASTL_Y279]	1.03	0.634	0.761	0.367	0.608	0.981	0.943	0.728	0.564	0.983	0.461	0.719	0.516	0.895	0.93	0.566
VLTSKYHGGGG [HBA1_Y141_R142H]	0.475	0.336	0.365	0.772	0.304	0.315	0.549	0.364	0.391	0.509	0.494	0.617	0.407	0.835	0.715	0.522
QLAPQYTFAQG [FLNA_Y1761_YF]	0.734	0.344	0.523	0.561	0.42	0.471	0.564	0.259	0.443	0.512	0.457	0.691	0.599	0.829	1.15	0.634
